From publication PMC11218997, “Human cytomegalovirus deploys molecular mimicry to recruit VPS4A to sites of virus assembly” (PLOS Pathogens, 2024)

B1: GST-CHMP6 MIM2 (domain or fragment, human, UniProt Q96FZ7 166-181, looked up)
chain: EQIELPEVPSEPLPEK
notes: human CHMP6 MIM2; pGEX4T2, annealed primers pGEX CHMP6 MIM2 fwd and rev; also called GST-tagged CHMP6 MIM2 motif; source: E. coli, purified following bacterial expression; not shown: GST, N-terminal, kept
B2: YC-VPS4A-FLAG: VPS4A-FLAG fused to the C-terminal half of Citrine (protein)
chain: MTTSTLQKAIDLVTKATEEDKAKNYEEALRLYQHAVEYFLHAIKYEAHSDKAKESIRAKCVQYLDRAEKLKDYLRSKEKHGKKPVKENQSEGKGSDSDSEGDNPEKKKLQEQLMGAVVMEKPNIRWNDVAGLEGAKEALKEAVILPIKFPHLFTGKRTPWRGILLFGPPGTGKSYLAKAVATEANNSTFFSVSSSDLMSKWLGESEKLVKNLFELARQHKPSIIFIDEVDSLCGSRNENESEAARRIKTEFLVQMQGVGNNNDGTLVLGATNIPWVLDSAIRRRFEKRIYIPLPEEAARAQMFRLHLGSTPHNLTDANIHELARKTEGYSGADISIIVRDSLMQPVRKVQSATHFKKVCGPSRTNPSMMIDDLLTPCSPGDPGAMEMTWMDVPGDKLLEPVVCMSDMLRSLATTRPTVNADDLLKVKKFSEDFGQES
modifications: left off: Citrine residues 156-239 with A206K (YC), N-terminal, kept | FLAG, C-terminal, kept
B3: YC-VPS4A-FLAG-L64D (protein)
chain: MTTSTLQKAIDLVTKATEEDKAKNYEEALRLYQHAVEYFLHAIKYEAHSDKAKESIRAKCVQYDDRAEKLKDYLRSKEKHGKKPVKENQSEGKGSDSDSEGDNPEKKKLQEQLMGAVVMEKPNIRWNDVAGLEGAKEALKEAVILPIKFPHLFTGKRTPWRGILLFGPPGTGKSYLAKAVATEANNSTFFSVSSSDLMSKWLGESEKLVKNLFELARQHKPSIIFIDEVDSLCGSRNENESEAARRIKTEFLVQMQGVGNNNDGTLVLGATNIPWVLDSAIRRRFEKRIYIPLPEEAARAQMFRLHLGSTPHNLTDANIHELARKTEGYSGADISIIVRDSLMQPVRKVQSATHFKKVCGPSRTNPSMMIDDLLTPCSPGDPGAMEMTWMDVPGDKLLEPVVCMSDMLRSLATTRPTVNADDLLKVKKFSEDFGQES
modifications: left off: Citrine residues 156-239 with A206K (YC), N-terminal, kept | FLAG, C-terminal, kept

Columns and labels:
[1] = target: T1, VPS4A MIT domain (residues 1–84) (human, UniProt Q9UN37 1-84); test: ITC
T1 chain: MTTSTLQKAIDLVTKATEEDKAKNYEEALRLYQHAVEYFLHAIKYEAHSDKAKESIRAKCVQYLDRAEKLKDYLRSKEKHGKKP

[2] = target: T2, VPS4A MIT domain (residues 1–84) (human, UniProt Q9UN37 1-84); test: ITC; titrants (GST-pUL71, GST-CHMP6 or peptides) titrated into VPS4A MIT domain in the cell; 25°C; 50 mM HEPES pH 8, 100 mM NaCl, 0.5 mM TCEP; 19×2 μL or 12×3 μL injections; one-site binding model; details: both partners purified
T2 construct: human VPS4A, MIT domain, residues 1-84 of UniProt Q9UN37; cloned into pOPT3G with an N-terminal GST and a human rhinovirus 3C site; the tag was removed with 3C protease; also called VPS4 MIT domain; source: E. coli T7 Express lysY/Iq, purified (glutathione Sepharose, 3C cleavage, SEC); not shown: GST, N-terminal, cleaved
T2 sequence (looked up): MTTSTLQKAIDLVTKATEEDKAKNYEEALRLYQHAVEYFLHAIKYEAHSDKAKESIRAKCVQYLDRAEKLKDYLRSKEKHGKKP

[3] = tested on: pUL71 (YN fusion, TB71-YN); test: Bimolecular fluorescence complementation in TB71-YN infected MRC-5 cells; assay type: cell-based, HCMV; details: MRC-5 infected with TB71-YN, MOI 1, 5 dpi
From the text: HCMV strains AD169 [92], Toledo [93], Merlin [94], VR1814 [95] and TB40/E [96] and two clinical isolates (isolates 19 and 20, kindly provided by C. Sinzger, Ulm University Hospital, Germany) were used in this study. This panel was chosen as it covers the most commonly used cell culture passaged strains and two isolates that grow highly cell associated. In addition, bacmid derived viruses were used. Reconstituted virus from bacterial artificial chromosome (BAC) clone TB40-BAC4 of the endotheliotropic HCMV strain TB40/E (accession number EF999921.1.) served as wild type virus (WT) in this study. Generation and propagation of recombinant viruses, TBstop71 and TBrev71 have been described elsewhere. […] The recombinant virus TB71-YN used for bimolecular fluorescence complementation (BiFC) assay, was generated by markerless BAC mutagenesis from BAC clone TB40-BAC4 by inserting the sequences corresponding to a (GGGGS)2-linker sequence, the c-myc-tag and the N-terminal fragment of the yellow fluorescent protein (YFP) variant Citrine, comprising amino acids 1–173 (YN), before the stop codon of the UL71 open reading frame. […]

Molecule	Kd [1]	Kd [2]	dH [2]	stoichiometry N [2]	Citrine fluorescence (BiFC) [3]
B1	15.3 µM	5.54 µM	-2.37 kcal/mol	0.84	
B2					Citrine fluorescence was detected
B3					Citrine fluorescence was detected
